Measured values published in publication PMC12068740.

Molecular target: Htz1(T46C)-2xFLAG (yeast H2A.Z with a cysteine probe) (yeast)
Assay: cross-linking; VivosX: disulfide cross-linking in living yeast cells with 180 uM 4-DPS for 20 min at 30 C; TCA fixation; non-reducing SDS-PAGE and anti-FLAG immunoblot, bands normalised to H4; WT cells (swc2 and swr1 deletion cells also tested, with fewer ZZ and AZ adducts)

percent of bulk H2A.Z in the H2A.Z-to-H2A.Z cross-linked adduct (WT cells)	percent of bulk H2A.Z in the H2A-to-H2A.Z cross-linked adduct (WT cells)	Substance
12%	–	Htz1(T46C)-2xFLAG (yeast H2A.Z with a cysteine probe) (natural protein)
–	57%	2xV5-Hta1(N39C) (yeast H2A with a cysteine probe) (natural protein)
